Molecular target: RecA (UniProt P0A7G6)
Conditions: FITC-avidin confocal microscopy, permeabilized HEp-2 nuclei in agarose, 37 C; no signal without recA or with BSA

Sequence of RecA (P0A7G6 2-353): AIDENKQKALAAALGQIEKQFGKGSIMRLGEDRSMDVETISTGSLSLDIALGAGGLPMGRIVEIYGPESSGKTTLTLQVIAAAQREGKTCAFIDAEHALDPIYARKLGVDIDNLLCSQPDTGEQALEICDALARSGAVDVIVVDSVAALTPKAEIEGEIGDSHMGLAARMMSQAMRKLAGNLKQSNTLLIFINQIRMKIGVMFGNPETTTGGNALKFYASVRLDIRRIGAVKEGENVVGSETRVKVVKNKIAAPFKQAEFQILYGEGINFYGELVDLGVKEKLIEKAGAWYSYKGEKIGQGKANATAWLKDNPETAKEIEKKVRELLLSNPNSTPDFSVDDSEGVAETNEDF

human chromosome 1 alpha-satellite targeting polynucleotides (nick-translated pUC 1.77, denatured)
binding (% nuclei with signal): > 25
